# B1: bacteriophage MS2 coat protein, P03612 1-130 (natural protein)
# chain: MASNFTQFVLVDNGGTGDVTVAPSNFANGVAEWISSNSRSQAYKVTCSVRQSSAQNRKYTIKVEVPKVATQTVGGVELPVAAWRSYLNMELTIPIFATNSDCELIVKAMQGLLKDGNPIPSAIAANSGIY
# Biological target: T1, bacteriophage MS2 coat protein (bacteriophage MS2), P03612
# T1 chain: B1 chain
# Experiment: cryo-EM structure; single particle cryo-EM of purified MS2 virions (coat protein, A-protein and RNA genome); icosahedral reconstruction at 4.1 Å and asymmetric reconstruction at 8.7 Å
# Settings: remark: other sources report otherwise
binder,measurement,value
B1,stoichiometry N,178 copies
